Measurements taken from patent US20120093719A1 (PROSCAN RX PHARMA, published 2012).

How the values were obtained:
[1] = target: T1, prostate specific membrane antigen (PSMA) (human, UniProt Q04609 1-750); experiment: ELISA, serially diluted antibody on membrane preparation of PSMA-expressing LNCaP cells against PSMA-negative PC-3
T1 construct: whole, on cells; In the assays PSMA stood as endogenous protein in LNCaP cell membrane preparations (ELISA) or LNCaP lysate (western blot); The background says PSMA forms a noncovalent homodimer
Description: FIG. 4: immunoreactivity mAb1 to cancer cell line. Serially diluted purified antibody was tested by ELISA on a cell membrane preparation that express PSMA (LNCaP) or not (PC-3). The antibody reacts strongly with the LNCaP preparation while the PC-3 remains unreactive;
Immunoreactivity of mAb1_against cancer cell line was tested by ELISA. Serially diluted purified antibody was tested on a cell membrane preparation that express PSMA (LNCaP) or not (PC-3).

[2] = target: T1, prostate specific membrane antigen …; experiment: ELISA on LNCaP or PC-3 membrane preparation
Description: An ELISA assay was used to test the reactivity and specificity of purified chimeric anti-PSMA antibodies. Briefly, 96-well plates (Immulon 2HB) were coated overnight at 4° C. or for 2 h at 37° C. with 100 uL of PBS containing 5 ug of cell membrane preparation. Plates were washed four times with 200 uL of 10 mM Tris-HCl, 150 mM NaCl, and 0.1% Tween-20 (TBST, pH 7.5), and blocked for 1 h with 200 uL of TBST containing 5% FBS. Plates were then washed and incubated for 1 h at room temperature using 100 uL of serially diluted purified chimeric anti-PSMA antibodies in TBST containing 5% FBS. Antibody binding was detected by the sequential addition, followed by washing, of 100 uL of horseradish peroxidase (HRP) conjugated goat anti-human IgG whole molecule (Jackson Immunoresearch) diluted 1:5000 in TBST containing 5% FBS, for 1 h at room temperature, and 100 uL of HRP colorimetric substrate solution 3,3′,5,5′-tetramethylbenzidine (BioFX Laboratories). The reaction was stopped with the addition of 100 uL of 0.5 M sulphuric acid and the absorbance was read at 450 nm in a microplate reader (Bio-Tek Instruments).
The reactivity of the DOTA conjugated antibody (chAb1-DOTA) was compared to the unconjugated antibody (chAb1) by ELISA on a cell membrane preparation that express PSMA (LNCaP) or not (PC-3) (FIG. 14).

[3] = target: T1, prostate specific membrane antigen …; experiment: ELISA after 5 days at 37 C in 0.1M glycine buffered with Tris to pH 7.4

T1 sequence (Q04609 whole entry): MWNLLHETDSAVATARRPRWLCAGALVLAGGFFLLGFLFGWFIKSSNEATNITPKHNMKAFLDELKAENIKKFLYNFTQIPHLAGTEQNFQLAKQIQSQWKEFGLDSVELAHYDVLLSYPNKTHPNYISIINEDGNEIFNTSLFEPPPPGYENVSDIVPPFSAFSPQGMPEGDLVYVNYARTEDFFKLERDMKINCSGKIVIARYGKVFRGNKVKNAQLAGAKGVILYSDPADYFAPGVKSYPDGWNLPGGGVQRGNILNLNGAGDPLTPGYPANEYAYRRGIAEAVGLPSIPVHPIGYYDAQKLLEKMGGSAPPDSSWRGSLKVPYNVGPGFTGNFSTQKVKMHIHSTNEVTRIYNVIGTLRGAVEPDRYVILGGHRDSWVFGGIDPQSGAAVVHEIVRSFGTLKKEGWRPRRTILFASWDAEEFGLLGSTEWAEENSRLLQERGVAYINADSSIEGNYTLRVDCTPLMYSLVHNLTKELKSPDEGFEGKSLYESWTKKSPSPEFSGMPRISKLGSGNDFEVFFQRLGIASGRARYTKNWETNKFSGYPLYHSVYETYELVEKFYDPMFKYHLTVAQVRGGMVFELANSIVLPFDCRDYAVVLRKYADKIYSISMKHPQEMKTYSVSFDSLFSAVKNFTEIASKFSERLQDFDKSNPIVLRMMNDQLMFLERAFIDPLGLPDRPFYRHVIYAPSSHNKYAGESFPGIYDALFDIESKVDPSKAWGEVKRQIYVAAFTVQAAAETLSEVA

B1: murine monoclonal anti-PSMA antibody mAb1 (antibody, V domains shown)
VH: EVQLQQSGAELVKPGASVKLSCTASGFNIKDTYMHWVKQRPEQGLEWIGGIDPADGETKYDPKFQDKATITTDTSSNTVYLQISSLTSEDTAVYYCVRSFDYWGQGTTLTVSS
VL: DVVMTQTPLSLPVSLGDQASISCRSSQSLVHSNGNTYLHWYLQKPGQSPKFLIYKASNRFSGVPDRFSGRGSGTDFTLKISRVEAEDLGVYFCFQSTHVPYTFGGGTKLEIKR
notes: also called murine anti-PSMA antibody; murine parental antibody
[1]
  binding result: binds

B2: DOTA-conjugated chimeric anti-PSMA antibody chAb1-DOTA (antibody, V domains shown)
VH: B1 VH
VL: B1 VL
modifications: DOTA conjugated through DOTA-NHS ester; sites and chain not stated
notes: also called DOTA conjugated antibody
[2]
  binding result: binds

B3: murine/human chimeric anti-PSMA antibody chAb1 (antibody, human IgG1, kappa, V domains shown)
VH: B1 VH
VL: B1 VL
notes: also called chimeric antibody
[3]
  binding result: binds
